Test results reported in patent US20140356358A1 (Amgen, published 2014).

Experiments:
[1] = molecular target: T1, human neonatal Fc receptor (hFcRn) (human, UniProt P55899 24-290; P61769 21-119); experiment: phage ELISA pH 7.4
T1 construct: Biotinylated in the ELISA, Octet and yeast assays; also called human FcRn; huFcRn
Experimental: (§1) Approximately 100 μL of biotinylated human FcRn at 2 μg/mL was added to the wells of MAXISORP™ plates coated with 10 μg/mL streptavidin. After washing with PBS plus 0.05% Tween 20 (PBST) five times, phage from the overnight cultures in MES buffer at pH 6.0 or pH 7.4 were added to the plates and incubated at room temperature for 1 hr. A horseradish peroxidase (HRP)-conjugated anti-M13 antibody was used to detect the binding phage, and the plates were scored by a microtiter plate reader using a wavelength in the visible range.
(§2) Binding was assessed by a quantitative enzyme-linked immunoadsorbent assay (ELISA). The ELISA scores reflect binding affinity, with higher scores meaning higher affinity. Typically, scores higher than about 3˜5 indicate binding above background. For library L5, the insertions are between the N169 and G170 according to the numbering in FIG. 2. For libraries 6A and 6B, the insertions are between L143 and T144 according to the numbering in FIG. 2.

[2] = molecular target: T1, human neonatal Fc receptor (hFcRn); experiment: phage ELISA pH 6
Experimental: as §1, §2
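Also: higher score means stronger binding and above about 3 to 5 exceeds background.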

Row | Binder | ELISA score [1] | ELISA score [2]
1 | L5 isolate with insertion SEQ ID NO: 470 (other) EPKSCDKTHTCPPCPAPELLGGPSVFLFPPKPKDTLMISRTPEVTCVVVDVSHEDPEVKFNWYVDGVEVHNAKTKPREEQYNSTYRVVSVLTVLHQDWLNGKEYKCKVSNKALPAPIEKTISKAKGQPREPQVYTLPPSRDELTKNQVSLTCLVKGFYPSDIAVEWESNGGCEASGQICGGGQPENNYKTTPPVLDSDGSFFLYSKLTVDKSRWQQGNVFSCSVMHEALHNHYTQKSLSLSPGK | 1.6 | 42.4
2 | L5 isolate with insertion SEQ ID NO: 485 (other) EPKSCDKTHTCPPCPAPELLGGPSVFLFPPKPKDTLMISRTPEVTCVVVDVSHEDPEVKFNWYVDGVEVHNAKTKPREEQYNSTYRVVSVLTVLHQDWLNGKEYKCKVSNKALPAPIEKTISKAKGQPREPQVYTLPPSRDELTKNQVSLTCLVKGFYPSDIAVEWESNGGCMPPQWMCGGGQPENNYKTTPPVLDSDGSFFLYSKLTVDKSRWQQGNVFSCSVMHEALHNHYTQKSLSLSPGK | 2.1 | 27.5
3 | L5 isolate with insertion SEQ ID NO: 475 (other) EPKSCDKTHTCPPCPAPELLGGPSVFLFPPKPKDTLMISRTPEVTCVVVDVSHEDPEVKFNWYVDGVEVHNAKTKPREEQYNSTYRVVSVLTVLHQDWLNGKEYKCKVSNKALPAPIEKTISKAKGQPREPQVYTLPPSRDELTKNQVSLTCLVKGFYPSDIAVEWESNGGCLGLRQECGGGQPENNYKTTPPVLDSDGSFFLYSKLTVDKSRWQQGNVFSCSVMHEALHNHYTQKSLSLSPGK | 1.6 | 41.1
4 | L5 isolate with insertion SEQ ID NO: 482 (other) EPKSCDKTHTCPPCPAPELLGGPSVFLFPPKPKDTLMISRTPEVTCVVVDVSHEDPEVKFNWYVDGVEVHNAKTKPREEQYNSTYRVVSVLTVLHQDWLNGKEYKCKVSNKALPAPIEKTISKAKGQPREPQVYTLPPSRDELTKNQVSLTCLVKGFYPSDIAVEWESNGGCMGWWHLCGGGQPENNYKTTPPVLDSDGSFFLYSKLTVDKSRWQQGNVFSCSVMHEALHNHYTQKSLSLSPGK | 1.2 | 29.5
5 | L5 isolate with insertion SEQ ID NO: 483 (other) EPKSCDKTHTCPPCPAPELLGGPSVFLFPPKPKDTLMISRTPEVTCVVVDVSHEDPEVKFNWYVDGVEVHNAKTKPREEQYNSTYRVVSVLTVLHQDWLNGKEYKCKVSNKALPAPIEKTISKAKGQPREPQVYTLPPSRDELTKNQVSLTCLVKGFYPSDIAVEWESNGGCPQHGEMCGGGQPENNYKTTPPVLDSDGSFFLYSKLTVDKSRWQQGNVFSCSVMHEALHNHYTQKSLSLSPGK | 0.5 | 28.4
6 | L5 isolate with insertion SEQ ID NO: 480 (other) EPKSCDKTHTCPPCPAPELLGGPSVFLFPPKPKDTLMISRTPEVTCVVVDVSHEDPEVKFNWYVDGVEVHNAKTKPREEQYNSTYRVVSVLTVLHQDWLNGKEYKCKVSNKALPAPIEKTISKAKGQPREPQVYTLPPSRDELTKNQVSLTCLVKGFYPSDIAVEWESNGGCAGPYWACGGGQPENNYKTTPPVLDSDGSFFLYSKLTVDKSRWQQGNVFSCSVMHEALHNHYTQKSLSLSPGK | 0.7 | 33.7
7 | L5 isolate with insertion SEQ ID NO: 477 (other) EPKSCDKTHTCPPCPAPELLGGPSVFLFPPKPKDTLMISRTPEVTCVVVDVSHEDPEVKFNWYVDGVEVHNAKTKPREEQYNSTYRVVSVLTVLHQDWLNGKEYKCKVSNKALPAPIEKTISKAKGQPREPQVYTLPPSRDELTKNQVSLTCLVKGFYPSDIAVEWESNGGCQQIKEWCGGGQPENNYKTTPPVLDSDGSFFLYSKLTVDKSRWQQGNVFSCSVMHEALHNHYTQKSLSLSPGK | 1.6 | 38.7
8 | L5 isolate with insertion SEQ ID NO: 478 (other) EPKSCDKTHTCPPCPAPELLGGPSVFLFPPKPKDTLMISRTPEVTCVVVDVSHEDPEVKFNWYVDGVEVHNAKTKPREEQYNSTYRVVSVLTVLHQDWLNGKEYKCKVSNKALPAPIEKTISKAKGQPREPQVYTLPPSRDELTKNQVSLTCLVKGFYPSDIAVEWESNGGCDLPNEMCGGGQPENNYKTTPPVLDSDGSFFLYSKLTVDKSRWQQGNVFSCSVMHEALHNHYTQKSLSLSPGK | 1 | 36.1
9 | L5 isolate with insertion SEQ ID NO: 479 (other) EPKSCDKTHTCPPCPAPELLGGPSVFLFPPKPKDTLMISRTPEVTCVVVDVSHEDPEVKFNWYVDGVEVHNAKTKPREEQYNSTYRVVSVLTVLHQDWLNGKEYKCKVSNKALPAPIEKTISKAKGQPREPQVYTLPPSRDELTKNQVSLTCLVKGFYPSDIAVEWESNGGCMFSHPHCGGGQPENNYKTTPPVLDSDGSFFLYSKLTVDKSRWQQGNVFSCSVMHEALHNHYTQKSLSLSPGK | 0.7 | 35.8
10 | L5 isolate with insertion SEQ ID NO: 484 (other) EPKSCDKTHTCPPCPAPELLGGPSVFLFPPKPKDTLMISRTPEVTCVVVDVSHEDPEVKFNWYVDGVEVHNAKTKPREEQYNSTYRVVSVLTVLHQDWLNGKEYKCKVSNKALPAPIEKTISKAKGQPREPQVYTLPPSRDELTKNQVSLTCLVKGFYPSDIAVEWESNGGCYASPHECGGGQPENNYKTTPPVLDSDGSFFLYSKLTVDKSRWQQGNVFSCSVMHEALHNHYTQKSLSLSPGK | 1 | 27.7
11 | L5 isolate with insertion SEQ ID NO: 481 (other) EPKSCDKTHTCPPCPAPELLGGPSVFLFPPKPKDTLMISRTPEVTCVVVDVSHEDPEVKFNWYVDGVEVHNAKTKPREEQYNSTYRVVSVLTVLHQDWLNGKEYKCKVSNKALPAPIEKTISKAKGQPREPQVYTLPPSRDELTKNQVSLTCLVKGFYPSDIAVEWESNGGCEQQFVTCGGGQPENNYKTTPPVLDSDGSFFLYSKLTVDKSRWQQGNVFSCSVMHEALHNHYTQKSLSLSPGK | 0.8 | 31.1

Continued, values first:

Row | ELISA score [1] | ELISA score [2] | Binder
12 | 1.4 | 26.9 | L5 isolate with insertion SEQ ID NO: 486 (other) EPKSCDKTHTCPPCPAPELLGGPSVFLFPPKPKDTLMISRTPEVTCVVVDVSHEDPEVKFNWYVDGVEVHNAKTKPREEQYNSTYRVVSVLTVLHQDWLNGKEYKCKVSNKALPAPIEKTISKAKGQPREPQVYTLPPSRDELTKNQVSLTCLVKGFYPSDIAVEWESNGGCDTIGWFCGGGQPENNYKTTPPVLDSDGSFFLYSKLTVDKSRWQQGNVFSCSVMHEALHNHYTQKSLSLSPGK
13 | 1 | 22 | L5 isolate with insertion SEQ ID NO: 493 (other) EPKSCDKTHTCPPCPAPELLGGPSVFLFPPKPKDTLMISRTPEVTCVVVDVSHEDPEVKFNWYVDGVEVHNAKTKPREEQYNSTYRVVSVLTVLHQDWLNGKEYKCKVSNKALPAPIEKTISKAKGQPREPQVYTLPPSRDELTKNQVSLTCLVKGFYPSDIAVEWESNGGCLLPNMFCGGGQPENNYKTTPPVLDSDGSFFLYSKLTVDKSRWQQGNVFSCSVMHEALHNHYTQKSLSLSPGK
14 | 1.2 | 24.9 | L5 isolate with insertion SEQ ID NO: 491 (other) EPKSCDKTHTCPPCPAPELLGGPSVFLFPPKPKDTLMISRTPEVTCVVVDVSHEDPEVKFNWYVDGVEVHNAKTKPREEQYNSTYRVVSVLTVLHQDWLNGKEYKCKVSNKALPAPIEKTISKAKGQPREPQVYTLPPSRDELTKNQVSLTCLVKGFYPSDIAVEWESNGGSQRAPASCGGGQPENNYKTTPPVLDSDGSFFLYSKLTVDKSRWQQGNVFSCSVMHEALHNHYTQKSLSLSPGK
15 | 0.7 | 26.3 | L5 isolate with insertion SEQ ID NO: 487 (other) EPKSCDKTHTCPPCPAPELLGGPSVFLFPPKPKDTLMISRTPEVTCVVVDVSHEDPEVKFNWYVDGVEVHNAKTKPREEQYNSTYRVVSVLTVLHQDWLNGKEYKCKVSNKALPAPIEKTISKAKGQPREPQVYTLPPSRDELTKNQVSLTCLVKGFYPSDIAVEWESNGGCGIFESWCGGGQPENNYKTTPPVLDSDGSFFLYSKLTVDKSRWQQGNVFSCSVMHEALHNHYTQKSLSLSPGK
16 | 0.9 | 26.1 | L5 isolate with insertion SEQ ID NO: 488 (other) EPKSCDKTHTCPPCPAPELLGGPSVFLFPPKPKDTLMISRTPEVTCVVVDVSHEDPEVKFNWYVDGVEVHNAKTKPREEQYNSTYRVVSVLTVLHQDWLNGKEYKCKVSNKALPAPIEKTISKAKGQPREPQVYTLPPSRDELTKNQVSLTCLVKGFYPSDIAVEWESNGGCGPYKTECGGGQPENNYKTTPPVLDSDGSFFLYSKLTVDKSRWQQGNVFSCSVMHEALHNHYTQKSLSLSPGK
17 | 0.7 | 25.2 | L5 isolate with insertion SEQ ID NO: 489 (other) EPKSCDKTHTCPPCPAPELLGGPSVFLFPPKPKDTLMISRTPEVTCVVVDVSHEDPEVKFNWYVDGVEVHNAKTKPREEQYNSTYRVVSVLTVLHQDWLNGKEYKCKVSNKALPAPIEKTISKAKGQPREPQVYTLPPSRDELTKNQVSLTCLVKGFYPSDIAVEWESNGGCQPQASWCGGGQPENNYKTTPPVLDSDGSFFLYSKLTVDKSRWQQGNVFSCSVMHEALHNHYTQKSLSLSPGK
18 | 1.5 | 23.9 | L5 isolate with insertion SEQ ID NO: 492 (other) EPKSCDKTHTCPPCPAPELLGGPSVFLFPPKPKDTLMISRTPEVTCVVVDVSHEDPEVKFNWYVDGVEVHNAKTKPREEQYNSTYRVVSVLTVLHQDWLNGKEYKCKVSNKALPAPIEKTISKAKGQPREPQVYTLPPSRDELTKNQVSLTCLVKGFYPSDIAVEWESNGGCMMREQGCGGGQPENNYKTTPPVLDSDGSFFLYSKLTVDKSRWQQGNVFSCSVMHEALHNHYTQKSLSLSPGK
